The target of series [1] is EcoRNAP sigma70 holoenzyme (Escherichia coli) (UniProt P0A7Z4+P0A8V2+P0A8T7+P0A800+P00579). The series can be described thus: stopped-flow Cy3 fluorescence enhancement. Conditions: scale: fold fluorescence enhancement.
In series [2] the target is EcoRNAP sigma70 holoenzyme (Escherichia coli, UniProt P0A7Z4;P0A8V2;P0A8T7;P0A800;P00579 1-329;1-1342;1-1407;2-91;1-613). The series can be described thus: 25 C, no CarD.

This note sets out measurements from PMC4381055.

For template lacking rrnAP3 promoter, Cy3, in series [1], the binding signal came out at 0.05.

B1: rrnAP3 150 bp template, +2 Cy3 (dsDNA)
DNA 1: AAAATAGGCGTATCACGAGGCCCTTTCGTCTTCAAGAATTCGTCTTGACTCCATTGCCGGATTTGTATTAGACTGGCAGGGTTGAAGCTTATGTATCACCTGACGTCATGATGAACTCAGAAGTGAAACTACGTATATCCGATGGTAGTG
DNA 2: CACTACCATCGGATATACGTAGTTTCACTTCTGAGTTCATCATGACGTCAGGTGATACATAAGCTTCAACCCTGCCAGTCTAATACAAATCCGGCAATGGAGTCAAGACGAATTCTTGAAGACGAAAGGGCCTCGTGATACGCCTATTTT
modifications: C6-amine on non-template +2 T
For the molecule B1, the “apparent K (half saturation)” value in series [2] was determined as 23 nM.
